Our source for the rupture force of the subunit interface values is article PMC3763527.

Assay in all cases: optical tweezers force spectroscopy; single-chain clamp held by two 777-bp DNA handles between streptavidin on a biotinylated quartz slide and an anti-digoxigenin-coated 2 µm bead in the laser trap; stage moved at 100 nm/s; trap stiffness 0.15 pN/nm; buffer B (100 mM sodium phosphate, 150 mM sodium chloride, pH 7.2); rupture of the one subunit-subunit interface that can open within the chain

Experiment [1] deals with single-chain E. coli β-clamp with cysteines at E64 (first subunit) and E314 (second subunit) (E. coli).
Experiment [2] has as its target single-chain E. coli β-clamp with cysteines at G102 (first subunit) and E298 (second subunit) (E. coli).
Experiment [3] deals with single-chain S. cerevisiae PCNA with cysteines at D122 (first subunit) and D223 (third subunit) (S. cerevisiae).
Experiment [4] has as its target single-chain S. cerevisiae PCNA with cysteines at K107 (first subunit) and F185 (third subunit) (S. cerevisiae).

In the case of “single-chain E. coli β-clamp with cysteines at E64 (first subunit) and E314 (second subunit)”, the rupture force of the subunit interface in experiment [1] turned out to be 5.8 pN.
For “single-chain E. coli β-clamp with cysteines at G102 (first subunit) and E298 (second subunit)”, the rupture force of the subunit interface in experiment [2] is 12 pN.
“single-chain S. cerevisiae PCNA with cysteines at D122 (first subunit) and D223 (third subunit)” came in with a rupture force of the subunit interface in experiment [3] of 11 pN.
“single-chain S. cerevisiae PCNA with cysteines at K107 (first subunit) and F185 (third subunit)” had a rupture force of the subunit interface in experiment [4] of 1.7 pN.
